From patent US20050101769A1 (VLAAMS INTERUNIVERSITAIR INSTITUUT VOOR BIOTECHNOLOGIE VZW, published 2005)

B1: TTRAP (TRAF and TNF receptor associated protein), full-length human (other)
chain: MELGSCLEGGREAAEEEGEPEVKKRRLLCVEFASVASCDAAVAQCFLAENDWEMERALNSYFEPPVEESALERRPETISEPKTYVDLTNEETTDSTTSKISPSEDTQQENGSMFSLITWNIDGLDLNNLSERARGVCSYLALYSPDVIFLQEVIPPYYSYLKKRSSNYEIITGHEEGYFTAIMLKKSRVKLKSQEIIPFPSTKMMRNLLCVHVNVSGNELCLMTSHLESTRGHAAERMNQLKMVLKKMQEAPESATVIFAGDTNLRDREVTRCGGLPNNIVDVWEFLGKPKHCQYTWDTQMNSNLGITAACKLRFDRIFFRAAAEEGHIIPRSLDLLGLEKLDCGRFPSDHWGLLCNLDIIL
notes: Protein of 362 amino acids; In the yeast two-hybrid assays it is a fusion expressed from the prey plasmid (pJG45); also called CD40 receptor associated protein
B2: 4F2d2, TTRAP deletion mutant, amino acids 54 to 236 (other)
chain: MERALNSYFEPPVEESALERRPETISEPKTYVDLTNEETTDSTTSKISPSEDTQQENGSMFSLITWNIDGLDLNNLSERARGVCSYLALYSPDVIFLQEVIPPYYSYLKKRSSNYEIITGHEEGYFTAIMLKKSRVKLKSQEIIPFPSTKMMRNLLCVHVNVSGNELCLMTSHLESTRGHAAE
notes: Yeast two-hybrid fusion
B3: 4F2d3, TTRAP deletion mutant, amino acids 54 to 273 (other)
chain: MERALNSYFEPPVEESALERRPETISEPKTYVDLTNEETTDSTTSKISPSEDTQQENGSMFSLITWNIDGLDLNNLSERARGVCSYLALYSPDVIFLQEVIPPYYSYLKKRSSNYEIITGHEEGYFTAIMLKKSRVKLKSQEIIPFPSTKMMRNLLCVHVNVSGNELCLMTSHLESTRGHAAERMNQLKMVLKKMQEAPESATVIFAGDTNLRDREVTRC
notes: Yeast two-hybrid fusion
B4: cytoplasmic region of CD30 (receptor, UniProt P28908 407-595, looked up)
chain: CHRRACRKRIRQKLHLCYPVQTSQPKLELVDSRPRRSSTQLRSGASVTEPVAEERGLMSQPLMETCHSVGAAYLESLPLQDASPAGGPSSPRDLPEPRVSTEHTNNKIEKIYIMKADTVIVGTVKAELPEGRGLAGPAEPELEEELEADHTPHYPEQETEPPLGSCSDVMLSVEEEGKEDPLPTAASGK
notes: domain: cytoplasmic region
B5: LMP-1 (other)
chain: YYHGQRHSDEHHHDDSLPHPQQATDDSGHESDSNSNEGRHHLLVSGAGDGPPLCSQNLGAPGGGPDNGPQDPDNTDDNGPQDPDNTDDNGPHDPLPQDPDNTDDNGPQDPDNTDDNGPHDPLPHSPSDSAGNDGGPPQLTEEVENKGGDQGPPLMTDGGGGHSHDSGHGGGDPHLPTLLLGSSGSGGDDDDPHGPVQLSYYD
B6: FADD (other, UniProt Q13158 1-208, looked up)
chain: MDPFLVLLHSVSSSLSSSELTELKFLCLGRVGKRKLERVQSGLDLFSMLLEQNDLEPGHTELLRELLASLRRHDLLRRVDDFEAGAAAGAAPGEEDLCAAFNVICDNVGKDWRRLARQLKVSDTKIDSIEDRYPRNLTERVRESLRIWKNTEKENATVAHLVGALRSCQMNLVADLVQEVQQARDLQNRSGAMSPMSWNSDASTSEAS
B7: 4F2, TTRAP deletion mutant, amino acids 54 to 362 (other)
chain: MERALNSYFEPPVEESALERRPETISEPKTYVDLTNEETTDSTTSKISPSEDTQQENGSMFSLITWNIDGLDLNNLSERARGVCSYLALYSPDVIFLQEVIPPYYSYLKKRSSNYEIITGHEEGYFTAIMLKKSRVKLKSQEIIPFPSTKMMRNLLCVHVNVSGNELCLMTSHLESTRGHAAERMNQLKMVLKKMQEAPESATVIFAGDTNLRDREVTRCGGLPNNIVDVWEFLGKPKHCQYTWDTQMNSNLGITAACKLRFDRIFFRAAAEEGHIIPRSLDLLGLEKLDCGRFPSDHWGLLCNLDIIL
notes: also called longest TTRAP fragment (aa 54-362); TTRAP/4F2
B8: cytoplasmic region of TNF-RII (receptor, UniProt P20333 288-461, looked up)
chain: KKKPLCLQREAKVPHLPADKARGTQGPEQQHLLITAPSSSSSSLESSASALDRRAPTRNQPQAPGVEASGAGEARASTGSSDSSPGGHGTQVNVTCIVNVCSSSDHSSQCSSQASSTMGDTDSSPSESPKDEQVPFSKEECAFRSQLETPETLLGSTEEKPLPLGVPDAGMKPS
notes: domain: cytoplasmic region
B9: 4F2d1, TTRAP deletion mutant, amino acids 54 to 140 (other)
chain: MERALNSYFEPPVEESALERRPETISEPKTYVDLTNEETTDSTTSKISPSEDTQQENGSMFSLITWNIDGLDLNNLSERARGVCSYL
notes: Yeast two-hybrid fusion

Columns and labels:
[1] = target: the molecule itself; assay: yeast two-hybrid (in Table I: TTRAP prey with 4F2 bait)
[2] = target: B7; assay: yeast two-hybrid, colour formation on X-gal; '-' = none
Experimental: (§1) The potential binding of TTRAP to other proteins was assessed using a yeast two-hybrid assay. The experimental outline is similar to the one described for the two-hybrid screening. However, here the plasmids for bait, prey and lacZ reporter were transformed simultaneously into the EGY48 yeast strain. Positive interaction was determined either by the growth phenotype (growth on medium lacking leucine in the presence of galactose, and not in the presence of glucose) or by the blue/white staining on X-gal containing plates (blue colonies only on galactose containing plates, not on glucose containing plates). cDNA's for TRAF2 and for the cytoplasmic regions of CD30, CD40 and TNF-RII were generated by PCR using the pfu polymerase (Promega). PCR fragments encoding RIP, TRADD and FADD were cloned in pCDNA3 (Invitrogen, Carlsbad, Calif.). cDNA of TRAF3 was obtained from the laboratory of Dixit, Dept Pathol., Univ. Michigan Med. School, MI, USA. The color formation was evaluated as strong and fast (++), strong but slow (+), weak and slow (±), none (−) or not determined (nd).

[3] = target: B1; assay: yeast two-hybrid, colour formation on X-gal (column = prey, row = bait)
Experimental: as §1

[4] = target: B7; assay: as above
Experimental: as §1

[5] = target: B1; assay: yeast two-hybrid, colour formation on X-gal; '-' = none
Experimental: as §1

[6] = target: the molecule itself; assay: yeast two-hybrid, colour formation on X-gal (column = prey, row = bait)
Experimental: as §1

[7] = target: B3; assay: yeast two-hybrid, colour formation on X-gal; '-' = none
Experimental: as §1

[8] = target: B2; assay: as above
Experimental: as §1

[9] = target: B8; assay: as above
Experimental: as §1

## B1
[1]
  binding result: binds

## B2
[2]
  binding result: no binding

## B3
[2]
  binding result: no binding

## B4
[3]
  binding result: binds
[4]
  binding result: binds

## B5
[5]
  binding result: no binding
[2]
  binding result: no binding

## B6
[5]
  binding result: no binding

## B7
[6]
  binding result: binds
[3]
  binding result: binds

## B8
[7]
  binding result: no binding
[8]
  binding result: no binding
[3]
  binding result: binds
[4]
  binding result: binds

## B9
[9]
  binding result: no binding
[2]
  binding result: no binding
